Laboratory results from PMC2733745 (The Journal of Cell Biology, 2009).

What was measured:
[1] = target: FN7–10 (fibronectin type III domains 7–10) (human, UniProt P02751-1 1173-1540); assay: SEC
[2] = target: full-length WT αVβ3 stably expressed on K562 cells (human, UniProt P06756;P05106); assay: flow cytometry on cells
1TM-αVβ3 = 1TM-αVβ3 (human, UniProt P06756;P05106); assay: SEC

stoichiometry N [1] [integrin/FN molar ratio] | binding result [2] | binding result (1TM-αVβ3) | Binder
~1 | – | – | 1TM-αVβ3 (complex) chain 1: FNLDVDSPAEYSGPEGSYFGFAVDFFVPSASSRMFLLVGAPKANTTQPGIVEGGQVLKCDWSSTRRCQPIEFDATGNRDYAKDDPLEFKSHQWFGASVRSKQDKILACAPLYHWRTEMKQEREPVGTCFLQDGTKTVEYAPCRSQDIDADGQGFCQGGFSIDFTKADRVLLGGPGSFYWQGQLISDQVAEIVSKYDPNVYSIKYNNQLATRTAQAIFDDSYLGYSVAVGDFNGDGIDDFVSGVPRAARTLGMVYIYDGKNMSSLYNFTGEQMAAYFGFSVAATDINGDDYADVFIGAPLFMDRGSDGKLQEVGQVSVSLQRASGDFQTTKLNGFEVFARFGSAIAPLGDLDQDGFNDIAIAAPYGGEDKKGIVYIFNGRSTGLNAVPSQILEGQWAARSMPPSFGYSMKGATDIDKNGYPDLIVGAFGVDRAILYRARPVITVNAGLEVYPSILNQDNKTCSLPGTALKVSCFNVRFCLKADGKGVLPRKLNFQVELLLDKLKQKGAIRRALFLYSRSPSHSKNMTISRGGLMQCEELIAYLRDESEFRDKLTPITIFMEYRLDYRTAADTTGLQPILNQFTPANISRQAHILLDCGEDNVCKPKLEVSVDSDQKKIYIGDDNPLTLIVKAQNQGEGAYEAELIVSIPLQADFIGVVRNNEALARLSCAFKTENQTRQVVCDLGNPMKAGTQLLAGLRFSVHQQSEMDTSVKFDLQIQSSNLFDKVSPVVSHKVDLAVLAAVEIRGVSSPDHVFLPIPNWEHKENPETEEDVGPVVQHIYELRNNGPSSFSKAMLHLQWPYKYNNNTLLYILHYDIDGPMNCTSDMEINPLRIKISSLQTTEKNDTVAGQGERDHLITKRDLALSEGDIHTLGCGVAQCLKIVCQVGRLDRGKSAILYVKSLLWTETFMNKENQNHSYSLKSSASFNVIEFPYKNLPIEDITNSTLVTTNVTWGIQPAPMPVPVWVI chain 2: GPNICTTRGVSSCQQCLAVSPMCAWCSDEALPLGSPRCDLKENLLKDNCAPESIEFPVSEARVLEDRPLSDKGSGDSSQVTQVSPQRIALRLRPDDSKNFSIQVRQVEDYPVDIYYLMDLSYSMKDDLWSIQNLGTKLATQMRKLTSNLRIGFGAFVDKPVSPYMYISPPEALENPCYDMKTTCLPMFGYKHVLTLTDQVTRFNEEVKKQSVSRNRDAPEGGFDAIMQATVCDEKIGWRNDASHLLVFTTDAKTHIALDGRLAGIVQPNDGQCHVGSDNHYSASTTMDYPSLGLMTEKLSQKNINLIFAVTENVVNLYQNYSELIPGTTVGVLSMDSSNVLQLIVDAYGKIRSKVELEVRDLPEELSLSFNATCLNNEVIPGLKSCMGLKIGDTVSFSIEAKVRGCPQEKEKSFTIKPVGFKDSLIVQVTFDCDCACQAQAEPNSHRCNNGNGTFECGVCRCGPGWLGSQCECSEEDYRPSQQDECSPREGQPVCSQRGECLCGQCVCHSSDFGKITGKYCECDDFSCVRYKGEMCSGHGQCSCGDCLCDSDWTGYYCNCTTRTDTCMSSNGLLCSGRGKCECGSCVCIQPGSYGDTCEKCPTCPDACTFKKECVECKKFDRGALHDENTCNRYCRDEIESVKELKDTGKDAVNCTYKNEDDCVVRFQYYEDSSGKSILYVVEEPECPKGPDILVV
– | binds | binds | Fab fragment of the anti–αV propeller mAb 17E6 (Fab, V domains shown) VH: QVQLQQSGAELAEPGASVKMSCKASGYTFSSFWMHWVKQRPGQGLEWIGYINPRSGYTECNEIFRDKATMTADTSSSTAYMQLSGLTSEDSAVYYCASFLGRGAMDYWGQGTSVTVSS VL: DIQMTQTTSSLSASLGDRVIISCRASQDISNYLSWYQQKPDGTVKLLIFYTSKLHSGVPSRFSGSGSGTDYSLTISNLDQEDIATYFCQQGNTFPYTFGGGTKVEMR
